Data: a protein production outcome set (Wang et al. 2014)

Test: label from the status in PepcDB records
For “MMTQQELEKYLWGAATTLRGTIDAGDYKQYIFPLMFFKRICDVYDEEFENALAESDGDLEYAAFAENHHFQVPKGAHWNDVRETTTNIGLALQNAMRAIEKANPDTLEGIFGDASWTNKERLSDAMLTNLIEHYSEQTLNLKNVPDDKLGNAYEYLIKEFADDSGHTAAEFYTNRTVVKLMTMIMAPQPGESVYDPTCGSGGLLLNCALHLKDEGKEYRTLKLYGQEINLLTSAIARMNMFMHGIEEFDIVRGNTLSNPGLLENDELKKFNVILANPPYSIKSWDRKAFESDPYGRNVWGTPPQGCADYAFQQHIQKSLDLGNGRSISLWPHGILFRDAETAMRRKMIEQDQVECVIGLGPNLFYNSPMEACLLITKTNKIESKKDKILFINAVKEVRQDKNIGYLDQVHIDKIFNAYNKFENEDSFAVLVDKQEVLDKKANMAINLYIRPDSLVSSEEACFATAYQEWQQSSGDLKQSMEKLFKELV”, the protein production was “not failed”.
With “MMVAVFWISFLLLAYIYFGYPVCIRLLASARPLPVNKSGAYQPKVSILIAAYNEAKDIEATLRNKLALDYPREQLEILVVSDESEDGTDEIVQAVAADAPFPVKLFRQVPRQGKTAGLNMLKQHAEGEILAFSDANSEWDQQALKALVSNFNDPAVGYVTGKMVYVNPEGALIGDGCSAYMKYENWLRAQETLVGSVVGVDGGIDAMRKELHSELNADQLPDFVQPLKVVEQGYRVVYEPGALLKEEALSDGGSEFSMRVRVSLRALWALKDMKQLMSPANDPVFAWQLISHKLLRYAAFAPMITLAIAALYLAPVKGLYALAAIGYGLFLYFAWAGYQKESRGQSLSTMYALPYYFVLLNLASFKAFVAFAKGEKKVVWNPRKG” the protein production was “failed”.
In the case of “MNAADLTIWLVAGAGVLSFISPCSLPLYPSYLSYITGVSIQDLKENRGIMQKSAIIHTVFFMIGFSVIFYALGLSVSWIGITFSSNQKLIQQIGGIFIVLMGLFMTGLFQPKWLMAEKKVQYRSKSTGYIRSILVGMTYAAGWTPCVGPIFSAVLMLGATNPEGALLYITAYTLGFAVPFFVMAFFIGKVKWIVTYANVMMKIGGGMMIVTGILLYTNQMTKITAFFIRLFGGFTGF”, the protein production was “failed”.
With “MNAAVVRRTQEALGKVIRRPPLTEKLLSKPPFRYLHDIITEVIRMTGFMKGLYTDAEMKSDNVKDKDAKISFLQKAIDVVVMVSGEPLLAKPARIVAGHEPERTNELLQIIGKCCLNKLSSDDAVRRVLAGEK” the protein production was “not failed”.
In the case of “MNAINTKVTPTKRKQVALFSSDPNFKRDVATRLDALAIYDVRVSETDDFLKGPPADTRPGIVILDLGGGDLLGKPGIVEARALWATVPLIAVSDELTSEQTRVLVRMNASDWLHKPLDGKELLNAVTFHDTGNQ”, the protein production was “not failed”.
For “MNAIPRVALVWLLVAQVLVILPHLAYMPLWIAAMWLGCAAWRVQVFRMRAGYPRAWVKLALALLAGAGVWLSRGSLVGLDAGAVLLIAAFILKLVEMKTRRDALVLVFLGFFAVVVGYLFDDGFLAALYSLLPVTALLAALIGLQQSAFASRPWPTLRLAGGLLLQALPLMLLLFLFFPRLGPLWSLPMPGNKGVTGLSESMAPGDIAELGRSAELAFRVRFEGALPPREQLYWRALTMERFDGRRWAQAPQWSGEDALHWQKRGPELRYDVIMQPSSQPWLFALDVAQTDQTDTRLMSDFHLQRRQPVEQRLFYRVSSWPQALRESSIDPRTRWRNLQLPMHGNPRARALADELRQAHAQPQALVAALLQRFNHEPFAYTLKPPATGADGVDDFLFDTRSGFCAHYAGAMAFVLRAAGIPARVVAGYQGGELNPAGNYLLVHQFDAHAWVEYWQPEQGWLSVDPTYQVAPERIEQGLEQALAGDSEYLADAPLSPLRYRGLPWLNDMRLAWDSLNYGWQRWVLAYQGEQQGAFLQRWFGGLDPTRLGLLLGAAAILSVGLLALFLLKPWQGRGDLRSRQLRRFERLLEMHGLRRSPGEGLRSYGERAARVLPAQAPAIAAFVGAFEAQRYGHGGADDPGLRLRALRRALPWRLVRTPTRDGRGEEQA”, the protein production was “failed”.
In the case of “MNALVAHNSEAWDKKVETGNEWTVAVEQQVIEQAKKGNWDIRVTPMKDVPKDWFPPIKGLKVLCLASGGGQQGPVLAAAGADVTVLDNSEKQLNQDRMIAERDGLTIHTVKGSMDDLSVFNDESFDVIVHPVANVFVENVLPVWKEAYRVLKRNGILISGFVNPVVFLFDTVLEQQGVLKVKHSIPYADPEDLPKHKVKELIENNEALEFGHSLEDQIKGQIDAGFIVTGFYEDKGGFVLDQYIHTYSATRSVKVLEHHHHHH”, the protein production was “not failed”.
For “MNANIMLNEDITPIGSDYDTVRGVIELLTLDYREQPSLEAIAARLGQSPTQLQKTFTRWAGLSPKAFLQAVTLDHAKRLLREEDLPLLETSIEVGMSGPGRLHDLFVTHEAMSPGEWKAKGGGLTIRYGFHASPFGLALVMITDRGLAGCAFADPGDERACFEDMAGRWPNADYVEDREATAPYAARIFEPAMWTADKPLRVVLLGTDFQVRVWKSLLKIPMGRAVTYSNIACDIGQPTASRAVGAAVGANPVSFVVPCHRAVGKSGALTGYHWGLTRKRAMLGWETGKALEHHHHHH”, the protein production was “failed”.
In the case of “MNARDNKFNTWNDSRGNYWSDYEGSDENGDGIGDSAYAVNPEAGSMDYMPLMEYLHSSPVLPTARFTSDITEGFAPLSVRFKDFSENATSRLWMFGDGNTSDSPSPLHTFFNEGEYIVSLIVSNENDSDSASVTIRALEHHHHHH”, the protein production was “not failed”.
With “MNASAVETIYESTEDKAALTSVVDLVKLSDQYRQSAILHYAVADKLFDLTQTGRTPAEVAASFGMVEGKAAILLHALAALGLLTKEGDAFRNTALTERYLTTTSADYIGPIVEHQYLQWDNWPRLGEILRSEKPLAFQQESRFAHDTRARDAFNDAMVRLSQPMVDVVSELGVFARARTVIDLAGGHGTYLAQVLRRHPQLTGQIWDLPTTRDAARKTIHAHDLGGRVEFFEKNLLDARNFEGGAADVVMLNDCLHYFDAREAREVIGHAAGLVKPGGALLILTMTMNDDRVTPALSADFSLHMMVNTNHGELHPTPWIAGVVRDAGLAVGERSIGRYTLLIGQRSSGEV” the protein production was “not failed”.
In the case of “MNASLTPDQVSKKLKQFFSDHLPISQFMGLEIESYDGDTLILTAPLEPNINDKQTAFGGSLYNAAVMACWGMVYLKTQEENIACNQVVTEGNMKYIAPVYGRIRAICHAPDEEELANFFDHFERKGKARISLEAAIYNDACVMKIEPETKPSVKFNGQYAILKNQ”, the protein production was “not failed”.
With “MNAWNTIYDQFNPIAFSLGSIEVHWYGLAYACAIVTAFYMALRMIQKDPKRFPIERKEFESYFLWAELGIVLGARIGYILIYEPNSGYYLTHFWQIFNPFDSHGNFVGIRGMSYHGGLVGFLIASYLYSRKDLKKLLIYLDLIAISLPLGYVFGRIGNFLNQELVGRIVPKDSHLGQIIGIMVDNELRYPSQLIEAFLEGVIVFLMVMWAKKHTKTHGLLIVVYGLGYSLMRFIAEFYREPDSQMGVYFLNLSMGQILSLFMVIVSLGILLYATKNSKKIKENQ” the protein production was “failed”.
For “MNDDSQDKIIHDIRIQLRKAATELSRWKLYGSSKWAAEALAGLAEAIDVDQTHSLADESPLRNKQGVPKQMFEIPQNGFGLSETEYDLYLLGSTLFDAKEFDRCVFFLKDVTNPYLKFLKLYSKFLSWDKKSQESMENILTTGKFTDEMYRANKDGDGSGNEDINQSGHQRANLKMVSNEHESQSNISSILKEINTFLESYEIKIDDDEADLGLALLYYLRGVILKQEKNISKAMSSFLKSLSCYSFNWSCWLELMDCLQKVDDALLLNNYLYQNFQFKFSENLGSQRTIEFNIMIKFFKLKVFEELNGQLEDYFEDLEFLLQVFPNFTFLKAYNATISYNNLDYVTAESRFDDIVKQDPYRLNDLETYSNILYVMQKNSKLAYLAQFVSQIDRFRPETCCIIANYYSARQEHEKSIMYFRRALTLDKKTTNAWTLMGHEFVELSNSHAAIECYRRAVDICPRDFKAWFGLGQAYALLDMHLYSLYYFQKACTLKPWDRRIWQVLGECYSKTGNKVEAIKCYKRSIKASQTVDQNTSIYYRLAQLYEELEDLQECKKFMMKCVDVEELLEGIVTDETVKARLWLAIFEIKAGNYQLAYDYAMGVSSGTSQEIEEARMLARECRRHM”, the protein production was “failed”.
In the case of “MNDGKATPGEAGCRENQLLKLPGFGNFTIIDRYIARQFLTIFLFALASFAALFILINLVENLDRFLDRHISFGRILIYYLSGLPDTFLLTSPLSVLLASLFVTGKLSMQSELPALKSAGMSLSRLMKPFLLVTMAIAALNTINSCFIAPAMYDWSKGFEKRYLKKQQDNGEEPLHIRESNNRILTVAKIGPDKKSATTVSLETFNGSQIVSRIDADSLRIITRHKYWIFYNTKQRTFSKGAETLVTRAGADTLKLSLAPNTFKMIDTDPDEMNIVQHIDFIWQKARSGLPGLERATVKLHTKLALPLASMIIVLIGVPLSSKKKRSGLAVEISISLLIGLLYLGMLKTIGSLGYDGLLNPVLAAWLPDILFIIAGTFLYRSADH”, the protein production was “failed”.
In the case of “MNDGRMLGLFTFIIMIISIISQIIALSASQRNIYLGIRIPQEEINNTKIKAIGKRYIWSNLLLGIPIAALLSYCVYKINNDILYLAAIILFMAISFLLYYYYNRKILKIKKEEGWLKTKKQEIVIDTSFAKRKSERMVAGSRWFLLSLIFIVICLIVNVKQYPNIPYRYPTHWDINGRPNAYSLKSYMTIFSMPINQLILIAVMFFSYKITFWSKNELDGRNPKDSGERNIKFRNVWAIYAIVVNFFLQIIFLIQDFQIMHIVNTNPKFIIIAVITMTIVVICSSLIISIKVGQGGSRLKTRGNKSEFGINMRDDDKYWRLGNLFYCNKNDPSIFVQKRFGIGWTVNVGNKFGVLFYVLIIVFLIICIAISR”, the protein production was “failed”.
For “MNDILQLTIVLIASLIATLVSRRLKIPAVVGQMLVGILIAPSVLGLVHSGHVLEVMSEIGVILLMFLAGIESDLTVLKKNFKASMLVAVGGVIVPLIAFGLVAFGFGYGISTSFFYGIVFAATSVSITVEVLQEYGKLSTRAGSIILGAAVVDDILAVLILSIFTSFKNGGSGSHLFIQFLLELLFFAFLFLVHKLIPRFWKFVQKLPIANKNTIVALIICLGLSLLADSVGMSAVIGSFFAGLAISQTEVSHKIEEYTSAIGYVIFIPVFFVLIAISVQFDSLIHHPWIILLFTFLAILTKFIPAYFVGKASKLSTGESMLIGTGMISRGEMALIVAQIGLTSAIITDEVYSELVIVIILATVLAPFLIKMVLKKYDN”, the protein production was “failed”.
In the case of “MNDLSQWSISKDSNLDSPWIEGIPGCGIPGAGSLVEHIDRQILVLQRDGRYIVGLLRSYDQYANLVLENTFERFVLNDSYCDEPLGVFIIRGENVALLGEVDGEKESQWLSHLHTVSLEDTKKTIRGKRQATKALLHSQPERVEWTFYDDAFF”, the protein production was “not failed”.
With “MNDRACVSARTRWPLVSVLIPAFNHARFVQRCLDSVLEDPYPCKEIVIIDDGSRDATGEKISQWISDHGHRLPVHFVQRENRGVAATLNELALRARGEYLRLGASDDYLLPGGLDAQVRYLRGHPQKLAVIGDACVVDAHGQLMHASAMRDLHRVDKDLYRSESGIRHAVIRQWAVSGAVALLRRSALDARSRWDESLRIEDWDFFLRLVAGNALGFIDLPVCAYRLHGNNLSKTADVPARIANLCESRQVALRCAPLFDEPDRMLLHAQARYIAAKVEFLRRRPHRIAMHLAVYAGLSLSARWRPKRVARAAELA” the protein production was “failed”.
In the case of “MNDRKILVAYFSCSGVTKAVAEKLAAITGADLYEIKPEVPYTEADLDWNDKKSRSSVEMRDALSRPAISGTLFHPEKYEVLFVGFPVWWYIAPTIINTFLESYDFAGKIVVPFATSGGSGIGNCEKNLHKAYPDIVWKDGKLLNGQITRDLVTEWFEKIRL”, the protein production was “not failed”.
In the case of “MNDSIKKINYLFICLFIFLNPLIPYNVKIHNNITVSDILLLVIFVLFLVEILRNRQKLKECFYIMLGDKTLFCLILLFIVMMISVTYAKEKPLALEESLRFFCYIGLYIILSLSYREEKHFKGFVTSFVASVTLISIIGIFQKITGMGIPHQYDYKVNGVTMVRVAAVFGNPNTLAAFMILSIFPIVMFAFFEKNLKKKAFYSILSVLIVYNAALTGSRNSYMGLALGFCVLALIYSIKLILPIIVLGGASMFLPQVTSRLRSIDNKNLNDARIKLWKTALKMIKDHPLSGVGNGNYIANYDAYVKQYPELRYADYSRFPVHNSYLKIESELGIFGGIFFVATIVNVFLKLYNTYKKTDIKIKKAFYLGFIASTSAFLFMNFSDNLLFVPSITSFFWMFVAIGDRH”, the protein production was “failed”.
